Data as given in patent US20160130351A1 (NOVIMMUNE S A, published 2016).
Substitutions are numbered along the chain they refer to.

Key:
MUTANT 4 = target: T1, MUTANT 4 (mouse, UniProt P22272); assay: flow cytometry on PEAK cells displaying the mutated mouse IL-6R, goat anti-human IgG Alexa Fluor 647
T1 construct: also called mouse IL-6R with human residues in D3, mutant 4
T1 sequence (receptor chain, looked up): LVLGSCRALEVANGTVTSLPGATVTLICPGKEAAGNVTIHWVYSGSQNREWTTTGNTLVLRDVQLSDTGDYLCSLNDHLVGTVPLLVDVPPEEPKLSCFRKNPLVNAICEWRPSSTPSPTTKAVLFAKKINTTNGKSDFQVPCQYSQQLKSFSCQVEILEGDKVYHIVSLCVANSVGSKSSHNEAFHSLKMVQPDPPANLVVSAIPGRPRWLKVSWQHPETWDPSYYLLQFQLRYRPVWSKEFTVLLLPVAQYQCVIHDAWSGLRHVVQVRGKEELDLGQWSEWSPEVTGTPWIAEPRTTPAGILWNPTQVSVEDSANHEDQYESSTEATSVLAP
Source text: (§1) An overlap extension PCR strategy was used to generate coding sequences specifying huIL-6R/mouseIL-6R chimeric proteins (FIG. 6A) and mouse IL-6R proteins containing human amino acid substitutions in D3 domains (FIG. 6B). Partially overlapping mutagenic oligonucleotide primers were used for PCR amplification of N- and C-terminal sequences on either side of huIL-6R/mouse IL-6R junctions or substituted regions, followed by gel isolation and annealing of the denatured PCR products. Full length PCR products were then digested by EcoRI and BglII and ligated into a pDISPLAY™ vector (Invitrogen). PEAK cells were grown in DMEM medium supplemented with 10% fetal calf serum and 4 mM L-glutamine. Cells were plated 12 to 24 h before transfection to have 40-50% confluency in 6 well plates. Transfections of pDISPLAY™ vectors (Invitrogen) were carried out by lipofection using TransIT® LT1 reagent (MirusBio) according manufacturer's specifications. Cells were grown for 48 h before harvesting and analysis by flow cytometry.
(§2) Cell surface staining was performed on PEAK cells displaying each variant of IL-6R and analyzed by flow cytometry (FIG. 6B-D). Cell surface expression of each chimeric IL-6R was assessed using an anti-human-CD126 PE or an anti-mouse CD126-PE antibody (BD Pharmingen).

[1] = target: T2, carrier-free soluble human IL-6R (R&D) (human, UniProt P08887 20-365); assay: SPR (Biacore 2000), mAb captured on anti-human IgG Fc, analyte in solution, 25 C, 1:1 Langmuir
T2 construct: extracellular domain; also called shuIL-6R; shuIL6-R
T2 sequence (looked up): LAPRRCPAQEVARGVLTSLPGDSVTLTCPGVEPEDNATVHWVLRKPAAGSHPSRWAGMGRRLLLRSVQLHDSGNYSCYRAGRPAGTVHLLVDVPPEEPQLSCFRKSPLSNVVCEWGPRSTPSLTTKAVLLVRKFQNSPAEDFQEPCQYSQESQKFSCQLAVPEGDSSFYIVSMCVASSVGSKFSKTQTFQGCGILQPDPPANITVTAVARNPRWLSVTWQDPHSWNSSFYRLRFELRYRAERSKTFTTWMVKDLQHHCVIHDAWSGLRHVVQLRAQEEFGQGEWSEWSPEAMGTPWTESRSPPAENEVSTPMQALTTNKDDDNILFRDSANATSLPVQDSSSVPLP
Experimental: (§3) A CM5 Biacore chip was used and 1640 RU (response units) of an anti-human IgG Fc (Biacore AB, Uppsala, Sweden) was immobilized by EDC/NHS chemistry. […] The surface was regenerated after each cycle by injection of 3M magnesium chloride at 20 μL/min, for 30 s followed by lmin of stabilization time in HBS-EP buffer (Biacore AB, Uppsala, Sweden). Binding was measured by passing analytes carrier-free soluble human IL-6R (shuIL6-R; R&D), soluble human IL-6Rc (shuIL-6Rc) and soluble cynomolgus monkey IL-6R (scyIL-6R) in duplicates at the following concentrations: 100 nM, 50 nM, 25 nM, 12.5 nM, 6.25 nM and 0nM. All solutions were diluted in HBS-EP buffer. Injection was performed at 50 μl/min for 3 min followed by 12 min of dissociation time and the temperature was set at 25° C.

[2] = target: T3, soluble cynomolgus monkey IL-6R (cynomolgus monkey, UniProt A0A2K5WN54 60-396); assay: as above
T3 construct: extracellular domain; also called scyIL-6R; soluble cynomolgus monkey IL-6 Receptor; not shown: C-terminal His- or Avi-Tag
T3 sequence: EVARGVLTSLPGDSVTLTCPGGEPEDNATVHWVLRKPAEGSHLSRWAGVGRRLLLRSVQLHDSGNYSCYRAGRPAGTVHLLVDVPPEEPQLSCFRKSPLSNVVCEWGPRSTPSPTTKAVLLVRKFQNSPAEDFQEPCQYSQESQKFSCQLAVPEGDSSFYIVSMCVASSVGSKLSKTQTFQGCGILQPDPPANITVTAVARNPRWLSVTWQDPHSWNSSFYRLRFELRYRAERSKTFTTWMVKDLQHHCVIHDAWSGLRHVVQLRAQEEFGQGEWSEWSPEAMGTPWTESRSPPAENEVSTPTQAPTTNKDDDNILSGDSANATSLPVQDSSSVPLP
Experimental: as §3

FULLY MOUSE IL-6R = target: T4, FULLY MOUSE IL-6R (mouse, UniProt P22272); assay: flow cytometry on PEAK cells displaying the IL-6R variant, goat anti-human IgG Alexa Fluor 647
T4 construct: also called chimeric receptor #5
T4 sequence (receptor chain, looked up): T1 sequence (receptor chain, looked up) with W261L, S262R, L264V, R265K
Source text: as §1, §2

binding result (MUTANT 4): no binding
Kd [1]: 0.0567 nM
koff [1]: 7.53e-05 s⁻¹
kon [1]: 1.33e+06 M⁻¹ s⁻¹
Kd [2]: 2.04 nM
koff [2]: 0.000215 s⁻¹
kon [2]: 106000 M⁻¹ s⁻¹
binding result (FULLY MOUSE IL-6R): no binding
B1: NI-1201 wild type (NI-1201-WT) antibody (antibody, V domains shown)
VH: QVQLVQSGAEVKKPGSSVKVSCKASGGTFSSYAISWVRQAPGQGLEWMGGIIPLFDTTKYAQQFQGRVTITADESTSTAYMELSSLRSEDTAVFYCARDRDILTDYYPMGGMDVWGQGTTVTVSS
VL: AIQLTQSPSSLSASVGDRVTITCRASQGISSVLAWYQQKPGKAPKLLIYDASSLESGVPSRFSGSGSGTDFTLTISSLQPEDFATYYCQQSNSYPLTFGGGTKVEIKR
notes: Fully human monoclonal IgG (captured by anti-human IgG Fc in Biacore); also called 39B9 VL1
